Our source for the percent pentamer and stoichiometry N values is publication doi:10.1101/2024.10.06.616851.

This experiment concerns the target intracellular (IC) wildtype penton of ASFV, HA-tagged (African swine fever virus (ASFV) Georgia 2007/1) (UniProt Q65190). Nature of the experiment: non-reducing SDS-PAGE with Western blot. In general terms: A western blot detects proteins with antibodies after separation by electrophoresis.

Usually stoichiometry N stands for a count of units in the complex or per binding partner. For “intracellular (IC) wildtype penton of ASFV, HA-tagged (from UniProt Q65190 1-240) (natural protein)”, the percent pentamer came to 30% and the stoichiometry N is 5.
